These results are taken from patent publication US7041441 (US Dept. of Health and Human Services, dated 2006).

The target of the test is T1, gp23* (major capsid protein of bacteriophage T4, cleaved mature form, in the expanded surface lattice) (bacteriophage T4, UniProt P04535 66-521).
T1 construct: mature; also called surface lattice protein; cleaved/expanded polyheads
T1 sequence: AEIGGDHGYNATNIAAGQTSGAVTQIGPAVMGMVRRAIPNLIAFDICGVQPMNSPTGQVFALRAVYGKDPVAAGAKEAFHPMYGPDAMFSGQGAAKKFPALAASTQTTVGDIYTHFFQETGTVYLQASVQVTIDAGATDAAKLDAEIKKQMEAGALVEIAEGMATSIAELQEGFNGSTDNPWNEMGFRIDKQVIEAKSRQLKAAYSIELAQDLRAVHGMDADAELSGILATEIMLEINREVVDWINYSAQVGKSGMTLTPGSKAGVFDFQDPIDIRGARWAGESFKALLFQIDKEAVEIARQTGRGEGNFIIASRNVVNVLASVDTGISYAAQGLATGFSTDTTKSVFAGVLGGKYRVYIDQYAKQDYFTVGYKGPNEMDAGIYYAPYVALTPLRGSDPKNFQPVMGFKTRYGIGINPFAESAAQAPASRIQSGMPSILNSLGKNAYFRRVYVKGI
As to the kind of experiment: co-pelleting with cleaved/expanded polyheads, quantitation of SDS-PAGE bands.

B1: SOC (small outer capsid) protein of bacteriophage T4, wild type (other)
chain: MASTRGYVNIKTFEQKLDGNKKIEGKEISVAFPLYSDVHKISGAHYQTFPSEKAAYSTVYEENQRTEWIAANEDLWKVTG
notes: mature
For the molecule B1, the “molar ratio of SOC:gp23*” value came to 1.2 mol/mol.

B2: SOC-V3 fusion protein (SOC, Cys-Leu-Asn-Ser, 43-residue V3 loop domain of HIV-1 gp120) (other)
chain: MASTRGYVNIKTFEQKLDGNKKIEGKEISVAFPLYSDVHKISGAHYQTFPSEKAAYSTVYEENQRTEWIAANEDLWKVTGCLNSSVEINCTRPNNNTRKRIRIQRGPGRAFVTIGKIGNMRQAHCNI
notes: mature;domain: V3 loop; also called SOV-V3
For B2, the “molar ratio of SOC-V3:gp23*” value came out at 1.8 mol/mol.
